Laboratory results: US20250109212A1 (BIOSION, published 2025)

T1: cynomolgus CD40-his protein (Biosion in house made) (cynomolgus, UniProt P25942 21-191 (human entry), limits assumed)
T1 construct: also called Cyno CD40-his
T1 chain: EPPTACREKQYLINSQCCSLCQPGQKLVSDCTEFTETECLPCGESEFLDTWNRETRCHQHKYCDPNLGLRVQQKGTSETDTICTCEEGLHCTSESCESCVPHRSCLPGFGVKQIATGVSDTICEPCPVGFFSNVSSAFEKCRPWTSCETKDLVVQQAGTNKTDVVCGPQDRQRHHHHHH


Columns and labels:
[1] = target: T2, biotin-labeled human CD47-Fc (Biosion in house made) (human, biotin-labeled (sites not given)); assay: competitive ELISA: binder premixed with biotin-labeled human CD47-Fc, blocked partner coated human CD172a-Fc, OD(450-630)
T2 construct: also called Human CD47-Fc protein
Protocol: (§1) The ability of the recombinant fusion proteins of the disclosure to block CD47-CD172a binding was measured in a competitive ELISA assay. Briefly, 100 μl/well human CD172a-Fc proteins (prepared in-house with amino acid sequence of SEQ ID NO: 24) were coated on 96-well micro plates at 2 μg/mL in coating buffer (carbonate/bicarbonate buffer) and incubated overnight at 4° C. The next day, the plates were washed once with wash buffer (PBS+0.05% v/v Tween-20, PBST), and then blocked with 5% w/v non-fatty milk in PBST for 2 hours at 37° C. The plates were then washed 4 times using wash buffer.
Serially diluted recombinant fusion proteins of the disclosure or controls (starting at 100 nM with a 5-fold serial dilution) were mixed with 20 ng/ml biotin-labeled human CD47-Fc (Biosion in house made, SEQ ID NO: 23) in PBST with 2.5% w/v non-fatty milk. The mixtures were incubated at 37° C. for 40 minutes, and respectively added to the CD172a-Fc bound plates, 100 μl per well. The plates were incubated at 37° C. for 40 minutes, washed 4 times using wash buffer, added with 100 μl/well streptavidin conjugated HRP (1:10000 dilution in PBST buffer, Cat #: 016-030-084, Jackson ImmunoResearch), incubated for 40 minutes at 37° C., and washed again using wash buffer. […] The plates were read on a microplate reader using the dual wavelength mode with 450 nm for TMB and 630 nm as the reference wavelength, and the OD (450-630) values were plotted against the recombinant fusion protein or controls concentration. Data was analyzed using Graphpad Prism and IC₅₀ values were reported. Wild-type SIRPαV2D1-Fc (IgG2) (SEQ ID NO: 21, X1=V, X2=K, X3=S, X4=K, X5=F) was used as a positive control.

[2] = target: T3, human CD47-his protein (Cat #: CD7-H5227, Acro biosystems) (human, UniProt Q08722 19-139); assay: SPR (Biacore T200), sample on Protein A chip, antigen-his analyte, 1:1 fit
T3 construct: Bought protein
Excerpt: (§2) The purified recombinant fusion proteins were characterized for their binding affinity and binding kinetics by Biacore T200 system (GE healthcare, Pittsburgh, PA, USA). The anti-CD40 antibody HuCD40-C1H1-V2 (having the heavy chain and the light chain of SEQ ID NOs: 19 and 20), Selicrelumab (an agonistic anti-CD40 antibody, Roche Inc., prepared in-house with heavy and light chains of SEQ ID NOs: 27 and 28), and SIRPα-Fc fusion proteins, including SIRPαV2D1M1-Fc (IgG2) (SEQ ID NO: 21, X1=I, X2=R, X3=T, X4=K, X5=F), SIRPαV2D1M2-Fc (IgG2) (SEQ ID NO: 21, X1=I, X2=R, X3=T, X4=R, X5=V), SIRPα-isoform2-Fc (SEQ ID NO: 25) were used as positive controls.
(§3) A Protein A chip (Cat #: 29-1275-56, GE healthcare) was used for affinity determination. The recombinant fusion proteins of the disclosure and the positive controls each at the concentration of 2 μg/ml were respectively flowed onto the chip at a flow rate of 10 μl/min. Then, serially diluted recombinant human CD40-his proteins (Cat #: CD0-H5228, Acro biosystems), human CD47-his proteins (Cat #: CD7-H5227, Acro biosystems), cynomolgus CD40-his proteins (Biosion in house made, SEQ ID NO: 29) or cynomolgus CD47-his proteins (Cat #: CD7-C52H1, Acro biosystems), 2-fold dilution in HBS-EP⁺ buffer (provided by Biacore) with a starting concentration of 200 nM, were flowed onto the chip at a flow rate of 30 μl/min. The association kinetics was followed for 2 minutes and the dissociation kinetics was followed for 10 minutes. The association and dissociation curves were fit to a 1:1 Langmuir binding model using the Biacore evaluation software.

[3] = target: T4, cynomolgus CD47-his protein (Cat #: CD7-C52H1, Acro biosystems) (cynomolgus, UniProt A0A2K5X523 19-139); assay: as above
T4 construct: Bought protein; also called Cyno CD47-his
Excerpt: as §2, §3

[4] = target: T5, full length human CD40 (uniprot #P25942-1) on 293T-CD40 cells (human, UniProt P25942 21-277); assay: FACS on 293T-CD40 cells, detection with goat anti-human IgG (Fab)-PE, MFI
T5 construct: whole, on cells
Protocol: Following an incubation of 40 minutes at 4° C. in dark, cells were washed three times and resuspended in FACS buffer. Fluorescence was measured using a Becton Dickinson FACS Canto II-HTS equipment and plotted against the recombinant fusion protein or controls concentration. Data was analyzed using Graphpad Prism and EC₅₀ values were reported.

[5] = target: T1, cynomolgus CD40-his protein (Biosion in …); assay: SPR (Biacore T200), sample on Protein A chip, antigen-his analyte, 1:1 fit
Excerpt: as §2, §3

[6] = target: T6, recombinant human CD40-his protein (Cat #: CD0-H5228, Acro biosystems) (human, UniProt P25942 21-193); assay: as above
T6 construct: Bought protein
Excerpt: as §2, §3

[7] = target: human CD40-Fc protein (prepared in-house) (human); assay: competitive ELISA: human CD40-Fc coated, blocked ligand biotin-labeled human CD40L-his, OD(450-630)
Protocol: as §1, with “CD40-CD40L” for “CD47-CD172a”, “CD40-Fc” for “CD172a-Fc”, “22)” for “24)”, “using the” for “using”
Serially diluted recombinant fusion proteins of the disclosure or controls (starting at 10 µg/mL with a 5-fold serial dilution) in PBST with 2.5% w/v non-fatty milk were added to the CD40-Fc bound plates, 100 μl per well, and incubated at 37° C. for 40 minutes. The plates were washed 4 times using wash buffer, and then added and incubated for 40 minutes at 37° C. with 100 μl/well 95 ng/mL biotin-labeled human CD40L-his protein (Cat #: 10239-H08E, Sino biological). The plates were washed again using wash buffer, added with 100 μl/well streptavidin conjugated HRP (1:10000 dilution in PBST buffer, Cat #: 016-030-084, Jackson ImmunoResearch) and incubated for 40 minutes at 37° C. The plates were washed again using wash buffer. […] The absorbance was read on a microplate reader using the dual wavelength mode with 450 nm for TMB and 630 nm as the reference wavelength, then the OD (450-630) values were plotted against the recombinant fusion protein or controls concentration. Data was analyzed using Graphpad Prism and IC₅₀ values were reported.

| IC50 [1] [nM] | Kd [2] [nM] | koff [2] [s⁻¹] | kon [2] [M⁻¹ s⁻¹] | Kd [3] [nM] | koff [3] [s⁻¹] | kon [3] [M⁻¹ s⁻¹] | EC50 [4] [nM] | Kd [5] [nM] | koff [5] [s⁻¹] | kon [5] [M⁻¹ s⁻¹] | Kd [6] [nM] | koff [6] [s⁻¹] | kon [6] [M⁻¹ s⁻¹] | IC50 [7] [nM] | Binder |
| --- | --- | --- | --- | --- | --- | --- | --- | --- | --- | --- | --- | --- | --- | --- | --- |
| 11.8 | 1.07 | 0.000417 | 388000 | 7.01 | 0.000438 | 62400 |  |  |  |  |  |  |  |  | SIRPαV2D1M2-Fc (IgG2) (Fc fusion, also called SIRPαV2M2-Fc(IgG2)) EEELQVIQPDKSVSVAAGESAILHCTITSLIPVGPIQWFRGAGPARELIYNQREGHFPRVTTVSETTRRENMDFSISISNITPADAGTYYCVKFRKGSPDTEVKSGAGTELSVRAKPSAPVVSGPAARATPGGGGSGGGGSERKCCVECPPCPAPPVAGPSVFLFPPKPKDTLMISRTPEVTCVVVDVSHEDPEVQFNWYVDGVEVHNAKTKPREEQFNSTFRVVSVLTVVHQDWLNGKEYKCKVSNKGLPAPIEKTISKTKGQPREPQVYTLPPSREEMTKNQVSLTCLVKGFYPSDIAVEWESNGQPENNYKTTPPMLDSDGSFFLYSKLTVDKSRWQQGNVFSCSVMHEALHNHYTQKSLSLSPGK |
|  |  |  |  |  |  |  | 2.28 | 16.8 | 0.00219 | 131000 | 6.41 | 0.00231 | 360000 | 3.33 | Selicrelumab (antibody, human IgG2, kappa, V domains shown, Agonistic anti-CD40 antibody, prepared in-house) VH: not shown VL: DIQMTQSPSSVSASVGDRVTITCRASQGIYSWLAWYQQKPGKAPNLLIYTASTLQSGVPSRFSGSGSGTDFTLTISSLQPEDFATYYCQQANIFPLTFGGGTKVEIKR |
|  |  |  |  |  |  |  | 1.54 |  |  |  | 0.71 | 0.00183 | 2.57e+06 | 2.93 | BSI038×S-003 (bispecific antibody, human IgG2, kappa, Wild-type SIRPαV2D1 linked to C-terminus of each light chain of HuCD40-C1H1-V2 (human IgG2)) heavy: EVQLVESGGGLVKPGGSLRLSCAASGFTFSNYGISWVRQAPGKGLEWVSSISSGGDNTYYPDNVKGRFTISRDNAKNSLYLQMNSLRAEDTAVYYCARAGEKAMDYWGQGTLVTVSSASTKGPSVFPLAPCSRSTSESTAALGCLVKDYFPEPVTVSWNSGALTSGVHTFPAVLQSSGLYSLSSVVTVPSSNFGTQTYTCNVDHKPSNTKVDKTVERKCCVECPPCPAPPVAGPSVFLFPPKPKDTLMISRTPEVTCVVVDVSHEDPEVQFNWYVDGVEVHNAKTKPREEQFNSTFRVVSVLTVVHQDWLNGKEYKCKVSNKGLPAPIEKTISKTKGQPREPQVYTLPPSREEMTKNQVSLTCLVKGFYPSDIAVEWESNGQPENNYKTTPPMLDSDGSFFLYSKLTVDKSRWQQGNVFSCSVMHEALHNHYTQKSLSLSPGK light: not shown |

The next lines start with the binder.

| Binder | IC50 [1] [nM] | Kd [2] [nM] | koff [2] [s⁻¹] | kon [2] [M⁻¹ s⁻¹] | Kd [3] [nM] | koff [3] [s⁻¹] | kon [3] [M⁻¹ s⁻¹] | EC50 [4] [nM] | Kd [5] [nM] | koff [5] [s⁻¹] | kon [5] [M⁻¹ s⁻¹] | Kd [6] [nM] | koff [6] [s⁻¹] | kon [6] [M⁻¹ s⁻¹] | IC50 [7] [nM] |
| --- | --- | --- | --- | --- | --- | --- | --- | --- | --- | --- | --- | --- | --- | --- | --- |
| SIRPαV2D1M1-Fc (IgG2) (Fc fusion, also called SIRPαV2M1-Fc(IgG2)) EEELQVIQPDKSVSVAAGESAILHCTITSLIPVGPIQWFRGAGPARELIYNQREGHFPRVTTVSETTKRENMDFSISISNITPADAGTYYCVKFRKGSPDTEFKSGAGTELSVRAKPSAPVVSGPAARATPGGGGSGGGGSERKCCVECPPCPAPPVAGPSVFLFPPKPKDTLMISRTPEVTCVVVDVSHEDPEVQFNWYVDGVEVHNAKTKPREEQFNSTFRVVSVLTVVHQDWLNGKEYKCKVSNKGLPAPIEKTISKTKGQPREPQVYTLPPSREEMTKNQVSLTCLVKGFYPSDIAVEWESNGQPENNYKTTPPMLDSDGSFFLYSKLTVDKSRWQQGNVFSCSVMHEALHNHYTQKSLSLSPGK | 8.87 | 0.952 | 0.000401 | 421000 | 4.88 | 0.000371 | 76000 |  |  |  |  |  |  |  |  |
| BSI038×S-001 (bispecific antibody, human IgG2, kappa, Wild-type SIRPαV2D1 linked to C-terminus of each heavy chain of HuCD40-C1H1-V2 (human IgG2)) heavy: not shown light: EIVLTQSPATLSLSPGERATLSCRASQTINNNLHWYQQKPGQAPRLLIKYASQSISGIPARFSGSGSGTDFTLTISSLEPEDFAVYFCQQFSSWPLTFGGGTKVEIKRTVAAPSVFIFPPSDEQLKSGTASVVCLLNNFYPREAKVQWKVDNALQSGNSQESVTEQDSKDSTYSLSSTLTLSKADYEKHKVYACEVTHQGLSSPVTKSFNRGEC |  |  |  |  |  |  |  | 1.45 |  |  |  | 0.771 | 0.00188 | 2.44e+06 | ~2.21 |
